The source of these data is US20070111281A1.

In test [1] the target is shFcγRIIIa-H6 (soluble human FcγRIIIa with hexahistidine tag, Example 3) (human) (UniProt P08637). Briefly: SPR (Biacore1000), receptor coupled to CM5 chip, IgG in flow, steady state. A general note: SPR reads the build-up and loss of mass on a sensor chip optically.
The target in test [2] is shFcγRIIIa-Q162-H6 (soluble human FcγRIIIa lacking glycosylation at position 162, hexahistidine tag, Example 3) (human) (UniProt P08637). Described as above.

Broadly, the Kd is the concentration at which binding is half-saturated. A low value points to tighter binding. For the substance “IgG mutant 9 H268D, non-GE glycoform (antibody)”, the Kd turned out to be 0.124 µM in test [1] and 0.0873 µM in test [2].
For “IgG mutant 20 S239W, non-GE glycoform (antibody)”, the values for the Kd in test [1] and in test [2] were 0.688 µM and 0.372 µM, respectively.
Regarding “IgG mutant 22 F243E, non-GE glycoform (antibody)”, the Kd in test [1] is 0.887 µM; in test [2], 0.428 µM.
Taken in the same sequence, the figures for “IgG mutant 30 H268E, non-GE glycoform (antibody)” were 0.189 µM and 0.152 µM.
Taken in the same sequence, the figures for “IgG mutant 43 S239D, non-GE glycoform (antibody)” were 0.0857 µM and 0.122 µM.
For the substance “IgG mutant 85 F243H, non-GE glycoform (antibody)”, the Kd in test [1] was found to be 0.542 µM; in test [2], 0.382 µM.
Taken in the same sequence, the figures for “IgG mutant 88 T260H, non-GE glycoform (antibody)” were 0.277 µM and 0.29 µM.
Take “IgG mutant 98 S239E, non-GE glycoform (antibody)”: the Kd in test [1] is 0.155 µM; in test [2], 0.17 µM.
Taken in the same sequence, the figures for “control antibody (humanized IgG1), non-GE glycoform” were 0.246 µM and 0.214 µM.
